{"source": "the DeepSol protein solubility set", "data": [{"experiment": "soluble on expression in E. coli; label from the status in PepcDB or PDB records", "values": [{"sequence": "MSLSKNWLFLGKGFRWRPSHTQKLHQIKQVKNEKFMQRSYCYQLTRRFCQSHEHTKLAKWLNINSKLNPFRPDPPVGGSPFLHGVGDEDKPVYIPQDVRVGHTFVVGTTRVGKTRLASILINQDIRNGDAVIVVDPKGDQDLVRDMVAACKVSGRTEDFKIVHLGFPEQSAQYNPLKKFDQISEVATRITDAISAEGEGKQFAAFAWKYVNIVAICLEEMNQPITYQTIAFYISRLEQLLMSYADNILPNHYLNYHQEIDDIIEEHDSKIGKNNKTKSPMERHQAVIQYIKDHINKTIKSNNAEALHDQILIDLYDAAIMDKHYYDKITASVGPVLSEINKSNASKILSSKAQPGDIELMDVIKNKKVLYIGLDSLTNPNIAQAVGKAFLSDLVSTAGKIYKEPNARYTLNLHCDELSEIIQDSFVKILNKAGGAGFQVTAYAQTIQDMEVALGSRAKAEVSEGNFNTLIMLRVKNEETANLLVKVLPQVGVVGHTQVSMVNDTPHGDDGVYFNTTNEDRVQTSNAPMIGVDDIISLPKGQAFVLASGGEIWKIRIPLPMNSNEGHHHHHH", "soluble on expression in E. coli": "not soluble"}, {"sequence": "MTVDNFRLQVLANHCTAAAEAMGYTLMRTAYSTFVKETEDFSAQLMTPAGKTFASPKTFGATWYTGLDYGRVIAMFDDYREGDIYLTNDPYSGFVATHTPDMHVWKPVFRDGRLVCFVGSHIHNTDMGGAVPASLSRTLTEVHQEGLRIPPMLLARDGVIDEKVLRIMEVNVRMPEQNRGDLNAQIAALNVGERKVHEIIDRFGVDEFMQGAEAILDYAEQQTRALIREIPDGEYRFAEYADEDTVGGYPCRIQITLRVRGDELELDFTGSDPQVASSLNVPTGGDGHHSVITVGLIYVMHTLAPRNVLNAGSVRPCRAVLPEGTVVNPQAPAAVGMRSLMAAVIQACTFGVFSRAMPDRLPACPAGGSTLLNVKTATREGRQVLSSIGPCGGGAGGGPEHDGVEGCGANNAFLKNTPVEINEAEVPIEIIRYGLVPDTGGAGRQRGGNAATMEFRLLAPNGVVTARNRNRSELAAWGVMGGKAGANSRFIRNPDSDAPEELRNSDLVNCAPGDVIRLQGPAGGGYGHPYERPIEQVVED", "soluble on expression in E. coli": "not soluble"}, {"sequence": "MEALGADVTQGLEKGSLITCADNTGARELKVISVHGYSGTKNRHPKAGLGDKITVSVTKGTPEMRRQVLEAVVVRQRKPIRRPDGTRVKFEDNAAVIVDENEDPRGTELKGPIAREVAQRFGSVASAATMIV", "soluble on expression in E. coli": "soluble"}, {"sequence": "MSTLKVVSSKLAAEIDKELMGPQIGFTLQQLMELAGFSVAQAVCRQFPLRGKTETEKGKHVFVIAGPGNNGGDGLVCARHLKLFGYNPVVFYPKRSERTEFYKQLVHQLNFFKVPVLSQDEGNWLEYLKPEKTLCIVDAIFGFSFKPPMREPFKGIVEELCKVQNIIPIVSVDVPTGWDVDKGPISQPSINPAVLVSLTVPKPCSSHIRENQTTHYVGGRFIPRDFANKFGFEPFGYESTDQILKL", "soluble on expression in E. coli": "soluble"}, {"sequence": "GSHMECADVPLLTPSSKEMMSQALKATFSGFTKEQQRLGIPKDPRQWTETHVRDWVMWAVNEFSLKGVDFQKFCMSGAALCALGKECFLELAPDFVGDILWEHLEILQKEDVK", "soluble on expression in E. coli": "soluble"}, {"sequence": "TETRLLQARVSDLQRLSSLGRMVASLAHQVRTPLSSAMLYASNLGAPNLPPATRERFQSKLMDRLHDLEKQVNDMLLFAKGGDNKVIKPFTIAQLVAEYQPMVETALKNNNIDYFLEVEEEQTE", "soluble on expression in E. coli": "not soluble"}, {"sequence": "MTSRRLEESMGAVQMGLVNMFKGFQSKVLPPLSPKVVTEEEVNRMLTPSEFLKEMSLTTEQRLAKTRLMCRPQIIELLDMGETTHQKFSGIDLDQALFQPFPSEIIFQNYTPCEVYEVPLILRNNDKIPRLVKVVEESSPYFKVISPKDIGHKVAPGVPSIFRILFTPEENKDYAHTLTCVTEREKFIVPIKARGARAILDFPDKLNFSTCPVKYSTQKILLVRNIGNKNAVFHIKTCRPFSIEPAIGTLNVGESMQLEVEFEPQSVGDHSGRLIVCYDTGEKVFVSLYGAAIDMNIRLDKNSLTIEKTYISMANQRTITIHNRSNIIAHFLWKVFATQQEEDREKYRACDDLIKEEKDETDEFFEECITDPLLREHLSVLSRTFANQRRLVQGDSKLFFNNVFTVEPLEGDVWPNSSAEITVYFNPLEAKLYQQTIYCDILGREIRLPLRIKGEGMGPKIHFNFELLDIGKVFTGSAHCYEAILYNKGSIDALFNMTPPTSALGACFVFSPKEGIIEPSGVQAIQISFSSIILGNFEEEFLVNVNGSPEPVKLTIRGCVIGPTFHFNVPALHFGDVSFGFPHTLICSLNNTSLIPMTYKLRIPGDGLGHKSISYCEQHVDYKRPSWTKEEISSMKPKEFTISPDCGTIRPQGFAAIRVTLCSNTVQKYELALVVDVEGIGEEVLALLITARYCSPACSSPESPPSLQ", "soluble on expression in E. coli": "soluble"}, {"sequence": "MGSDKIHHHHHHMKFYNREKEVAELKRVQELAFTQNSRMIVVTGRRRIGKTSLIKEALKGTPTVYLFIGRKAESILVTDFVKIVRETLSIFVPEGIPTFTNLMQYLFEVGKTRAFNIVIDEFQEFYNIRPDVFSDMQNLWDEYKQETKINLVISGSVYSLMQKIFTDHNEPLFGRADNILCLRAFKIGVLKQIMEDLASGYSNDDLLALYTLTGGIPKYVELFCDNQALTIDKMYDFVFSENSLFIDEGRNLLITEFGKNYGTYFSILSEIANGHYTQGEIESALGGTAIGGYLSKLENVYNLITRERPIFAKPGTKKNVRYVIGDNFLNFWFKYIEQNRSYIELQNFDDLRQLAKADYPTYSGRVLEKYFKQKLAETGGFKEIGSWWETKSSIGKQRINSYEIDIVALKSSGKKALIAEVKRVPENNYSHTVFMEKVEHLKQKEMSKYDIETQVLGLKDM", "soluble on expression in E. coli": "not soluble"}, {"sequence": "MERVLITGGAGFIGSHLVDDLQQDYDVYVLDNYRTGKRENIKSLADDHVFELDIREYDAVEQIMKTYQFDYVIHLAALVSVAESVEKPILSQEINVVATLRLLEIIKKYNNHIKRFIFASSAAVYGDLPDLPKSDQSLILPLSPYAIDKYYGERTTLNYCSLYNIPTAVVKFFNVFGPRQDPKSQYSGVISKMFDSFEHNKPFTFFGDGLQTRDFVYVYDVVQSVRLIMEHKDAIGHGYNIGTGTFTNLLEVYRIIGELYGKSVEHEFKEARKGDIKHSYADISNLKALGFVPKYTVETGLKDYFNFEVDNIEEVTAKEVEMS", "soluble on expression in E. coli": "not soluble"}, {"sequence": "AAGTVFTTVEDLGSKILLTCSLNDSATEVTGHRWLKGGVVLKEDALPGQKTEFKVDSDDQWGEYSCVFLPEPMGTANIQLHGPPRVKAVKSSEHINEGETAMLVCKSESVPPVTDWAWYKITDSEDKALMNGSESRFFVSSSQGRSELHIENLNMEADPGQYRCNGTSSKGSDQAIITLRVRSH", "soluble on expression in E. coli": "soluble"}, {"sequence": "MLWRKRLFAHLYPGLSARHEALVAERKRALFREALRRARPERVLEIGPGPGTNLAHLPEGVAYLALEPNPFFHPRLREEARKRGLALTLLPGRAEAIPLPGGSVDLVVATLVLCSVADPEKAIEEVHRVLRPGGAYLFLEHVAAPKGAPLRLLQEAATPFFVFFGDGCHPNRKTLAQIQARFPRVEAEAFSLPLPVVAPHVAGLAFKELEHHHHHH", "soluble on expression in E. coli": "not soluble"}, {"sequence": "PKHGKRYRALLEKVDPNKIYTIDEAAHLVKELATAKFDETVEVHAKLGIDPRRSDQNVRGTVSLPHGGRIEFRNDKTGAIHAPVGKASFPPEKLADNIRAFIRALEAHKPEGAKGTFLRSVYVTTTMGPSVRINPHS", "soluble on expression in E. coli": "soluble"}, {"sequence": "MGSDKIHHHHHHAQYNKVYADITANMLVDMGFENVIWSEDEKERVYVLENTPWRLQGVGLAHAIDRIQKTGLPEKGKSCRIVVLDNNIPQISLIYTANPDSLKAAPGSYAARSAWDATYDLGDSWDKVKKEYRMNSSLFKVDVVVYPELYLKNLIITQIYQVLFNLSPAIEVSFWNGMKLTAQMVFPIYNDGYGPWAGKIHPGMVTLSQSFRLPYRTFARASIGLFNADRYGVDLAVTHHLKDERFSLEGRIGCTGTGSWQKFEYHYGTHQRVTWSLGGSFYWPKYNTQVSLKAEQYLLGEIGGRIDLIRHFRYCSIGFYAMKAQGALKNGGFRFQVALPPYKYKRKNVRVLPSDNWGMSYNAGNERYYYKGYKASPNDNIMQQNQFNPYFIKSELLNF", "soluble on expression in E. coli": "not soluble"}, {"sequence": "MATVNKQAIAAAFGRAAAHYEQHADLQRQSADALLAMLPQRKYTHVLDAGCGPGWMSRHWRERHAQVTALDLSPPMLVQARQKDAADHYLAGDIESLPLATATFDLAWSNLAVQWCGNLSTALRELYRVVRPKGVVAFTTLVQGSLPELHQAWQAVDERPHANRFLPPDEIEQSLNGVHYQHHIQPITLWFDDALSAMRSLKGIGATHLHEGRDPRILTRSQLQRLQLAWPQQQGRYPLTYHLFLGVIARE", "soluble on expression in E. coli": "not soluble"}, {"sequence": "DATWLPPSRWDDGIPGLMLDYNLNGTVSRNYQGGDSHQFSYNGTVGGNLGPWRLRADYQGSQEQSRYNGEKTTNRNFTWSRFYLFRAIPRWRANLTLGENNINSDIFRSWSYTGASLESDDRMLPPRLRGYAPQITGIAETNARVVVSQQGRVLYDSMVPAGPFSIQDLDSSVRGRLDVEVIEQNGRKKTFQVDTASVPYLTRPGQVRYKLVSGRSRGYGHETEGPVFATGEASWGLSNQWSLYGGAVLAGDYNALAAGAGWDLGVPGTLSADITQSVARIEGERTFQGKSWRLSYSKRFDNADADITFAGYRFSERNYMTMEQYLNARYRNDYSSREKEMYTVTLNKNVADWNTSFNLQYSRQTYWDIRKTDYYTVSVNRYFNVFGLQGVAVGLSASRSKYLGRDNDSAYLRISVPLGTGTASYSGSMSNDRYVNMAGYTDTFNDGLDSYSLNAGLNSGGGLTSQRQINAYYSHRSPLANLSANIASLQKGYTSFGVSASGGATITGKGALVPR", "soluble on expression in E. coli": "soluble"}, {"sequence": "MKVKNNAQLLMPREKMLKFGISALTDVELLALFLRTGTRGKDVLTLAKEMLENFGSLYGLLTSEYEQFSGVHGIGVAKFAQLKGIAELARRYYNVRMREESPLLSPEMTREFLQSQLTGEEREIFMVIFLDSQHRVITHSRLFSGTLNHVEVHPREIIREAIKINASALILAHNHPSGCAEPSKADKLITERIIKSCQFMDLRVLDHIVIGRGEYVSFAERGWI", "soluble on expression in E. coli": "not soluble"}, {"sequence": "MAGDPMTKQEKIQKTITFVKHILEKDASGHDWYHIERVHKMAISLSEQEGGNRFIIEMAALLHDVADEKLNESEEAGMKKVSDWLEELRVEEEESKHILHIIANMSYKGGHGGTVESLEGKIVQDADRLDALGAIGIARTFAYGGAKGRLMYDPTIPPREEMTKEEYRKNNDPSLNHFYEKLLKLKDLMNTNAAKQEAEIRHLYMEQFIEQFMKEWNAQILEHHHHHH", "soluble on expression in E. coli": "soluble"}, {"sequence": "MVSRHIPERLKKKIYQEANMTCPNCGERDVSTFEIHHIQPFVDVKKHEERNLILLCSNCHSKATVGELTEIEVLRLKVGLISSSSGQSKETMPSNVITLDSVKNHGVIANQVTLNNSPAKVVLLPAVGSIASSLKHQNYIKYLIDKYHAYKIVEVGKSNMKYPVFYNALKRKFGAKWDMVPIDRFLELSTYIQDRIEKTVLGKKLKAQGKKSYSTFEEYLAKNCSLEHHHHHH", "soluble on expression in E. coli": "not soluble"}, {"sequence": "MSLQIHALFPTAVATAQLRLDPLEMAAQLQTLLMLRGADEGNPNSGCAWTGDLNGVWQLHRHPDFSGMTDRVVEQAWAYLSAVGFDQAKLALHVQRCWPVLSDWDQMVGRHHHPNAHLSAVLYLSGSGSGEDGVLRIHAPSQPNELVPGSAAGHGGPIAAGHPLNQPHWDLAPQPGLLVLFPSRLDHSVLANGDPELLRCSISFDFVLTAPVDGDPPEYLAPHPSLWTPQPLEVNEGHHHHHH", "soluble on expression in E. coli": "soluble"}, {"sequence": "FRKIAQAYNLDLLVHHANAQLKQLVRRYRLKRGGSMLGLLVMDTEMGDELRSVHSLSGGETFLVSLALALGLASMASSTLRIESLFIDEGFGSLDPESLQLAMDALDGLQAQGRKVGVISHVQEMHERIPVQIRVRRQGNGLSTI", "soluble on expression in E. coli": "not soluble"}, {"sequence": "MLACSFKAVNGGFRHLLIRMIIDPPHHLFDTALARQIAIHILHYQFEVTRPRLVAMQEHERTAVARSLRTINRRLEEPVFAKAYRRWAGRDGTVSRDCFKFDCCA", "soluble on expression in E. coli": "not soluble"}]}]}
